The results in this text go back to paper PMC9486129, “An evolutionary divergent thermodynamic brake in ZAP-70 fine-tunes the kinetic proofreading in T cells” (The Journal of Biological Chemistry, 2022).

By Kd is commonly meant the concentration at which binding is half-saturated.

Assay [1] has as its target ZAP-70 tSH2 WT (1–256). The experiment in a line: stopped-flow fluorescence; pre-steady-state tryptophan fluorescence, 10 °C; 100 nM tSH2 domain mixed with 30 μM ITAM peptide in 20 mM Tris pH 8.0, 150 mM NaCl, 5% glycerol, 5 mM β-mercaptoethanol; 1 s (fast) and 200 s (slow) transients; observed rates from one-site association fit.
The target of assay [2] is ZAP-70 tSH2 WT (1–256). The experiment in a line: other fluorescence titration; steady-state intrinsic tryptophan fluorescence, 25 °C; 0.5 μM tSH2 domain titrated with ITAM peptide; excitation 295 nm, emission 300-400 nm; Hill equation fit.
Assay [3] deals with ZAP-70 tandem SH2 domain R192A (1-256). The experiment in a line: ITC; Malvern PEAQ-ITC, 20 °C; C-SH2 mutant tSH2 (R192A, printed R190A in the methods) in 20 mM Hepes pH 8.2, 150 mM NaCl, 5 mM β-mercaptoethanol; titrated with 300 μM peptide; one-site binding model; constant printed under the column Kd2. In general terms: ITC needs no label: the signal is the heat of the interaction.

Assay [4] deals with ZAP-70 tSH2 F117A. The experiment in a line: stopped-flow fluorescence; pre-steady-state tryptophan fluorescence, 10 °C; 100 nM tSH2 domain mixed with 30 μM ITAM peptide in 20 mM Tris pH 8.0, 150 mM NaCl, 5% glycerol, 5 mM β-mercaptoethanol; 1 s (fast) and 200 s (slow) transients; observed rates from one-site association fit.
The target of assay [5] is ZAP-70 tSH2 R192A. The description is as above.
The target in assay [6] is ZAP-70 tSH2 R39A. The assay is described as above.
In assay [7] the target is ZAP-70 tSH2 R43P. The description is as above.
In assay [8] the target is ZAP-70 tSH2 R39A. The experiment in a line: other fluorescence titration; steady-state intrinsic tryptophan fluorescence, 25 °C; 0.5 μM tSH2 domain titrated with ITAM peptide; excitation 295 nm, emission 300-400 nm; Hill equation fit.

In the case of “single phosphotyrosine ITAM-ζ1 peptide (ITAM-YP-ζ1) (from UniProt P20963 61-89)”, in assay [1], the kobs fast came to 28.6 s⁻¹. This substance also yielded a Kd1 in assay [2] of 3.7 nM.
In assay [1], “doubly phosphorylated ITAM-ζ3 peptide (ITAM-Y2P-ζ3) (from UniProt P20963 131-159)” came in with a kobs fast of 21.4 s⁻¹ and a kobs slow of 0.012 s⁻¹. The same substance displayed a Kd1 in assay [2] of 6.8 nM.
Take “doubly-phosphorylated ITAM-ζ1 peptide with E13A”: in assay [3], the Kd came out at 9.8 µM.
On to ITAM-Y2P-ζ1 E13A (peptide), for which, in assay [1], the kobs fast was determined as 24.4 s⁻¹ and the kobs slow turned out to be 0.022 s⁻¹.
Regarding “doubly phosphorylated ITAM-ζ1 peptide (ITAM-Y2P-ζ1) (from UniProt P20963 61-89)”, the kobs fast turned out to be 21.8 s⁻¹ in assay [4], 23.9 s⁻¹ in assay [1], 24.8 s⁻¹ in assay [6] and 28 s⁻¹ in assay [7]. Also, the kobs slow in assay [4] is 0.0517 s⁻¹; in assay [5] it was 0.006 s⁻¹; in assay [1], 0.262 s⁻¹; in assay [7] it was 2.25 s⁻¹. Besides, the Kd1 in assay [8] is 8 nM.
